Residue numbers refer to the chain shown, from its start. Names may count otherwise.
T1: single chain human CD3ε-26mer-CD3γ (CD3εγ) (human)
T1 construct: also called human CD3εγ
T1 chain: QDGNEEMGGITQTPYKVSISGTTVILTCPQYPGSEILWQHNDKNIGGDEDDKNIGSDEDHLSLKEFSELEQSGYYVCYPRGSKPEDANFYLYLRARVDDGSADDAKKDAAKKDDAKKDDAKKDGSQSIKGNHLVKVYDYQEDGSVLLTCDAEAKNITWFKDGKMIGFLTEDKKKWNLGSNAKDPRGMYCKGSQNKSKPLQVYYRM

T2: Commercial hCD3eg
T2 chain 1: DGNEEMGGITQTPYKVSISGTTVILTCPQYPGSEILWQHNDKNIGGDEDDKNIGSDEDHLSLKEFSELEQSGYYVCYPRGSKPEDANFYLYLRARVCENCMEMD
T2 chain 2: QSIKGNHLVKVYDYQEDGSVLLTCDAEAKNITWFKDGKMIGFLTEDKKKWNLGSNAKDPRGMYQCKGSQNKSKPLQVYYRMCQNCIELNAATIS

B1: hu38E4.v1 H3 mutant D95S (Fab, V domains shown)
VH: EVQLVQSGAEVKKPGASVKVSCKASGFTFTSYYIHWVRQAPGQGLEWIGWIYPENDNTKYNEKFKDRVTITADTSTSTAYLELSSLRSEDTAVYYCARSGYSRYYFDYWGQGTLVTVSS
VL: DIVMTQSPDSLAVSLGERATINCKSSQSLLNSRTRKNYLAWYQQKPGQSPKLLIYWTSTRKSGVPDRFSGSGSGTDFTLTISSLQAEDVAVYYCKQSFILRTFGQGTKVEIK
notes: copies: 1 + 1
B2: hu38E4.v1 L3 mutant I93A (Fab, V domains shown)
VH: B1 VH with S99D
VL: B1 VL with I99A
notes: copies: 1 + 1
B3: hu38E4.v1 L3 mutant Q90A (Fab, V domains shown)
VH: B1 VH with S99D
VL: B1 VL with Q96A
notes: copies: 1 + 1
B4: hu38E4.v1 L3 mutant F92A (Fab, V domains shown)
VH: B1 VH with S99D
VL: B1 VL with F98A
notes: copies: 1 + 1
B5: hu38E4.v1 H3 mutant G96A (Fab, V domains shown)
VH: B1 VH with S99D, G100A
VL: B1 VL
notes: copies: 1 + 1
B6: hu38E4.v1 H3 mutant D95T (Fab, V domains shown)
VH: B1 VH with S99T
VL: B1 VL
notes: copies: 1 + 1
B7: hu38E4.v1 H3 mutant Y100A (Fab, V domains shown)
VH: B1 VH with S99D, Y104A
VL: B1 VL
notes: copies: 1 + 1
B8: hu38E4.v1 H3 mutant Y100aA (Fab, V domains shown)
VH: B1 VH with S99D, Y105A
VL: B1 VL
notes: copies: 1 + 1
B9: 40G5 (antibody, V domains shown)
VH: QVQLQQSGPELVKPGTSVKMSCKASGYTFTNYYIHWVRQRPGQGLEWIGWIYPGDVSTKYNEKFKGKTTLTADKSSSTAYMLLSGLTSEDSAIYFCARDGYSFYYFDYWGQGTTLTVSS
VL: DIVLTQSPSSLAVSAGEKVTMSCKSSQSLLNSRTRKNYLTWYQQKPGQSPKLLIYWASTRDSGVPDRFSGSGSGTDFTLTISSVQAEDLAVYYCTQSYTLRTFGGGTKLEIK
notes: mouse hybridoma clone; not the consensus 40G5c; also called mu40G5
B10: 38E4 (antibody, IgG3, V domains shown)
VH: QVQLQQSGPELVKPGASVTISCTASGFTFTSYYIHWVRQRPGQGLEWIGWIYPENDNTKYNEKFKDKATLTADTSSSTAYMQLSSLTSEDSAVYYCARDGYSRYYFDYWGQGTTLTVSS
VL: DIVMTQSPSFLAVSAGEKVTMSCKSSQSLLNSRTRKNYLAWYQQRPGQSPKLLIYWTSTRKSGVPDRFTGSGSGTDFTLTISSVQAEDLAIYYCKQSFILRTFGGGTKLEIK
notes: mouse hybridoma clone; also called mu38E4
B11: hu38E4.v1 L3 mutant K89A (Fab, V domains shown)
VH: B1 VH with S99D
VL: B1 VL with K95A
notes: copies: 1 + 1
B12: hu38E4.v1 H3 mutant Y102A (Fab, V domains shown)
VH: B1 VH with S99D, Y108A
VL: B1 VL
notes: copies: 1 + 1
B13: hu38E4.v1 H3 mutant D101A (Fab, V domains shown)
VH: B1 VH with S99D, D107A
VL: B1 VL
notes: copies: 1 + 1
B14: hu38E4.v1 H3 mutant S98A (Fab, V domains shown)
VH: B1 VH with S99D, S102A
VL: B1 VL
notes: copies: 1 + 1
B15: 30A1 (antibody, IgG1, V domains shown)
VH: QVQLKESGPGLVAPSQSLSITCTVSGFSLTNYAIHWVRQPPGKGLDWLGVIWAGGNTKYNSALMSRLSFSKDNSKSQVFLEINSLQTDDTAMYYCAREDSSGYVALDYWGQGTSVTVSS
VL: NIVMTQSPSSLAVSAGEKVTMSCKSSQSLLSGRTRKNYLAWYQQKPGQSPKLLIYWASTRESGVPDRFTGSGSGTDFTLTISSVQAEDLAVYYCKQSYYLLTFGAGTKLELK
notes: mouse hybridoma clone
B16: 13A3 (antibody, IgG2b, V domains shown)
VH: EVQLQQSGPELVKPGASVRISCKASGYTFTSYYIHWMKQRPGQGLEWIGWIYPGNVNTKYNEKFKGKATLTADNSSSTANMQLSSLTSEDSAVYFCARNHDYYFDYWGQGTTLTVSS
VL: B9 VL with T40A, D61E, S69T, T95K, T99I
notes: mouse hybridoma clone; also called 13A3 (xCD3)
B17: 19B1 (antibody, IgG2b, V domains shown)
VH: B16 VH
VL: B9 VL with D1G, L4M, T40A, D61E, S69T, T95K, T99I
notes: mouse hybridoma clone; also called 19B1 (xCD3)
B18: murine SP34 (antibody, V domains shown)
VH: EVQLVESGGGLVQPKGSLKLSCAASGFTFNTYAMNWVRQAPGKGLEWVARIRSKYNNYATYYADSVKDRFTISRDDSQSILYLQMNNLKTEDTAMYYCVRHGNFGNSYVSWFAYWGQGTLVTVSS
VL: QAVVTQESALTTSPGETVTLTCRSSTGAVTTSNYANWVQEKPDHLFTGLIGGTNKRAPGVPARFSGSLIGDKAALTITGAQTEDEAIYFCALWYSNLWVFGGGTKLTVL
B19: humanized SP34 variant: λ7 graft + F36V + T46G + Y49G / VH3 graft + N73D + T93V (antibody, V domains shown)
VH: B18 VH with K15G, K19R, A49G, Q78K, S79N, I80T, N87S, K89R, T90A, M95V
VL: EAVVTQEPSLTVSPGGTVTLTCRSSTGAVTTSNYANWVQQKPGQAPRGLIGGTNKRAPWTPARFSGSLLGGKAALTLSGAQPEDEAEYYCALWYSNLWVFGGGTKLTVL
B20: humanized SP34 variant: λ7 graft + F36V + Q38E + A43L + P44F + T46G + Y49G + T58V + Y87F / VH3 graft + G49A + T93V (antibody, V domains shown)
VH: B18 VH with K15G, K19R, D76N, Q78K, S79N, I80T, N87S, K89R, T90A, M95V
VL: B19 VL with Q40E, A45L, P46F, T60V, Y89F
B21: humanized SP34 variant: λ7 graft + F36V + T46G + Y49G / VH3 graft + T93V (antibody, V domains shown)
VH: EVQLVESGGGLVQPGGSLRLSCAASGFTFNTYAMNWVRQAPGKGLEWVGRIRSKYNNYATYYADSVKDRFTISRDNSKNTLYLQMNSLRAEDTAVYYCVRHGNFGNSYVSWFAYWGQGTLVTVSS
VL: B19 VL
B22: humanized SP34 variant: λ7 graft + F36V + T46G + Y49G / VH3 graft G49A + N73D + T93V (antibody, V domains shown)
VH: B21 VH with G49A, N76D
VL: B19 VL
B23: humanized SP34 variant: λ7 graft + F36V + Q38E + A43L + P44F + T46G + Y49G + T58V + Y87F / VH3 graft G49A + N73D + T93V (antibody, V domains shown)
VH: B21 VH with G49A, N76D
VL: B19 VL with Q40E, A45L, P46F, T60V, Y89F
B24: humanized SP34 variant: λ7 graft + F36V + Q38E + A43L + P44F + T46G + Y49G + T58V + Y87F / VH3 graft + N73D + T93V (antibody, V domains shown)
VH: B21 VH with N76D
VL: B19 VL with Q40E, A45L, P46F, T60V, Y89F

Biological target: T1, single chain human CD3ε-26mer-CD3γ …
Assay: Biacore full (multi-) cycle kinetics: antigen on chip, Fab injected; antigen not named on the sheet, taken as human CD3εγ
Text: (§1) In addition, position 95 in HVR-H3 was also mutated to serine, threonine, or glutamate. Variants with these single point mutations were expressed as Fabs in HEK293 cells and initially screened with a single cycle kinetics method on a Biacore T100. Selected variants were also scaled up and purified for a conventional multi-cycle kinetics method. For single cycle kinetics, Biacore Series S CM5 sensor chips were immobilized with anti-human Fab antibodies (Human Fab capture kit, GE Healthcare). […] For conventional multi-cycle kinetics, human CD3εγ, cyno CD3εγ, or a 27-mer peptide were immobilized on Biacore Series S CM5 sensor chip using the amine coupling kit from Biacore. Serial 3-fold dilutions of each Fab variant were injected at a flow rate of 30 μl/min. Each sample was analyzed with a protocol of 3-minute association and 3-minute dissociation. In both methods, the Biacore chips were regenerated using 10 mM Glycine (pH 1.7). Binding response was corrected by blank subtraction and a 1:1Languir model of simultaneous fitting of kₒₙ and koff was used for kinetics analysis.

Kd [nM] | koff [s⁻¹] | kon [M⁻¹ s⁻¹] | Binder
180 | 0.202 | 1.12e+06 | B1
4 | 0.0124 | 3.08e+06 | B2
23.8 | 0.00422 | 178000 | B3
15.9 | 0.0232 | 1.46e+06 | B4
1.9 | 0.00357 | 1.86e+06 | B5
34.2 | 0.00175 | 51100 | B6
414 | 0.0191 | 46000 | B7
87 | 0.0246 | 283000 | B8

biological target: CD3 antigen of Figures 3B and 3C (not named); assay: kinetic table of IgGs; method and antigen not stated

Kd [nM] | koff [s⁻¹] | kon [M⁻¹ s⁻¹] | Binder
0.159 | 2.48e-05 | 156000 | B9
0.0783 | 3.45e-05 | 441000 | B10

Biological target: T1, single chain human CD3ε-26mer-CD3γ …
Assay: Biacore full (multi-) cycle kinetics; KD relative to hu38E4.v1
Text: as §1

ratio (fold) | Binder
226 | B1
5.1 | B2
29.9 | B3
20 | B4
2.4 | B5
43 | B6
521 | B7
110 | B8

Biological target: T1, single chain human CD3ε-26mer-CD3γ …
Assay: Biacore single cycle kinetics; KD relative to hu38E4.v1
Text: as §1

ratio (fold) | Binder
0.7 | B11
1.2 | B12
7.2 | B13
1.1 | B14

Biological target: T1, single chain human CD3ε-26mer-CD3γ …
Assay: Biacore single cycle kinetics: Fab captured by anti-human Fab, human CD3εγ injected (3-250 nM)
Text: as §1

Kd [nM] | koff [s⁻¹] | kon [M⁻¹ s⁻¹] | Binder
2.4 | 0.00102 | 428000 | B11
4.1 | 0.00132 | 322000 | B12
24.1 | 0.00342 | 142000 | B13
3.8 | 0.00147 | 385000 | B14

biological target: CD3 antigen of Figures 3B and 3C (not named); assay: kinetic table of IgGs; method and antigen not stated; remark: another data set of the same source

Kd [nM] | koff [s⁻¹] | kon [M⁻¹ s⁻¹] | Binder
0.86 | 2.69e-05 | 31100 | B9
0.95 | 5.32e-05 | 56000 | B10

Biological target: T2, Commercial hCD3eg
Assay: mu IgG against commercial hCD3eg; method not stated on the sheet

Kd [nM] | Binder
0.4 | B15
0.6 | B16
0.7 | B17

biological target: T3, commercial CD3ε (Creative Biomart, Catalog Number CD3E-2194H) (human, UniProt P07766); assay: binding affinity on commercial CD3ε (Creative Biomart CD3E-2194H); method not stated in the legend
T3 construct: commercial recombinant protein; also called commercial CD3E

Kd [nM] | Binder
7 | B18
3.5 | B19
21 | B20
15.9 | B21
14.5 | B22
8 | B23
3.1 | B24
